Results as given in patent US20240317816A1, “PEPTIDES FOR IMMUNOTHERAPY” (Genevive, Inc., priority 2021, published 2024).
Where no end group is shown, it is not given here.

T1: CXCR3 (Homo sapiens, UniProt P49682)
T1 sequence (P49682 1-368): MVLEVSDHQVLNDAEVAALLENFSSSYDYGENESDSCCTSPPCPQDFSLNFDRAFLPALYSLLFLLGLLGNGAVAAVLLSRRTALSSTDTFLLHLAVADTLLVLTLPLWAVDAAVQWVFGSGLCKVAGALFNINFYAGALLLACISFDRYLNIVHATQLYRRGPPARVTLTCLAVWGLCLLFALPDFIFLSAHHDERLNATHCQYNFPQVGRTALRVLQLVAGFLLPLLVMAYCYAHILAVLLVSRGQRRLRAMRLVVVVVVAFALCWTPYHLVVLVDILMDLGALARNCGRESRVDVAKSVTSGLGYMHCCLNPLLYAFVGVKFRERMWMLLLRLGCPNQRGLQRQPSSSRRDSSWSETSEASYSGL

T2: human chemokine (C-X-C motif) receptor 3 (Homo sapiens, UniProt P49682)
T2 construct: TEV protease site; Gal4-VP16 transcription factor ('Ga14-VP16' [sic]); Tango cell line; host or cells: Tango GPCR-bla U2OS
T2 sequence (P49682 1-368): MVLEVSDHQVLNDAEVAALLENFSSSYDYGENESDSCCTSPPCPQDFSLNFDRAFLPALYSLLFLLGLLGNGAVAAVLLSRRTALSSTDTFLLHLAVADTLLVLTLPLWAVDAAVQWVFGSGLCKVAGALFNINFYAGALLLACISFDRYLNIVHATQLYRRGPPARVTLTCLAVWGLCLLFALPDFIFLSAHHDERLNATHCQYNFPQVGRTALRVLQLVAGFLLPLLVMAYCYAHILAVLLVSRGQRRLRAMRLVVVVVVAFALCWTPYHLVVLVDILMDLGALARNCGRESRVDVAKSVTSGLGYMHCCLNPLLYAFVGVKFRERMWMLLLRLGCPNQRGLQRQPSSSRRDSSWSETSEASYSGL

T3: human chemokine (C-X-C motif) receptor 3 (human, UniProt P49682 1-368)
T3 construct: whole, on cells; The PathHunter gpcrMAX panel uses a different, undescribed construct; also called CXCR3
T3 sequence (looked up): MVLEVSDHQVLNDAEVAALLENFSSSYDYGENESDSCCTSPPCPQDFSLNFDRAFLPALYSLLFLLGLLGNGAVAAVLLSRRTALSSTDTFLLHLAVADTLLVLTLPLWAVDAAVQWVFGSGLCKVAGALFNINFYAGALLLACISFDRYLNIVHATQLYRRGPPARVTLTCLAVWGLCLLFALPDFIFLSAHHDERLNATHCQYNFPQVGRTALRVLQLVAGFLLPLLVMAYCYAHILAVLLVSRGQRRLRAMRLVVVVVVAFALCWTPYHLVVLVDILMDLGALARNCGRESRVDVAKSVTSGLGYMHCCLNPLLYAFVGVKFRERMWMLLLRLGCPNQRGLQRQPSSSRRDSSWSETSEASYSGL


Columns and labels:
CXCR3 = target: T1, CXCR3; assay: Positive allosteric modulator assay method 2 (PAM2), CXCR3-bla U2OS; type: cell-based; design: TEV protease site; Gal4-VP16 transcription factor ('Ga14-VP16' [sic]); Tango cell line; host or cells: Tango GPCR-bla U2OS; settings: varying CXCL11, fixed peptide concentration
Description: (§1) Tango™ CXCR3-bla U2OS cells contain the human chemokine (C-X-C motif) receptor 3 linked to a TEV protease site and a Ga14-VP16 transcription factor stably integrated into the Tango™ GPCR-bla U2OS cell line. This parental cell line stably expresses a beta-arrestin/TEV protease fusion protein and the beta-lactamase reporter gene under the control of a UAS response element. The Tango™ CXCR3-bla U2OS cells have been functionally validated for a response to I-TAC (CXCL11).
Positive allosteric modulation was confirmed with an additional test method using a dose response setting for CXCL11. In positive allosteric modulator assay method 2 (PAM2), cells were diluted in Assay Media to an appropriate cell density, and were added to the assay plate. CXCR3-bla U2OS were stimulated with varying concentrations of CXCL11 ligand and a pre-determined fixed concentration of either SG-3-00802 or SG-3-06683 and incubated for 30 minutes. Ligand (CXCL9, CXCL10, or CXCL11) was added at increasing concentrations to wells containing the test compound.

[1] = target: T2, human chemokine (C-X-C motif) receptor 3; assay: Positive allosteric modulator assay method 1 (PAM1), Tango CXCR3-bla U2OS; type: cell-based; settings: retro-inverso peptide vs SG-3-00802
Description: To assay positive allosteric modulator activity of SG-3-00802 (SEQ ID NO: 1) and SG-3-006683 in CXCR3 cell lines, the cell line Tango™ CXCR3-bla U2OS was used in a positive allosteric modulator assay with two different methods, as described below.
as §1
In positive allosteric modulator assay method 1 (PAM1), cells were diluted in Assay Media to an appropriate cell density and were added to the assay plate. Peptides were added at increasing concentrations (1 nM-20 mcM) to the cells in the assay plate and incubated for 30 minutes. Ligand (CXCL9, CXCL10, or CXCL11) was added at an EC20 to all wells containing test compound. The assay plate was incubated for 16 hours at 37° C. Substrate Loading Solution was added to the assay plate and incubated for 2 hours at room temperature, in the dark. The assay plate was read on a fluorescence plate reader and the data was analyzed. PAM activity was calculated as follows:
% of PAM=((Test compound−Unstimulated)/(Stimulated−Unstimulated))×100.

[2] = test system: Unstimulated human T cells; assay: Transwell T cell migration towards CXCR3 ligands; type: cell-based; settings: CXCL11, 2.5 hours
Experimental: T cell migration towards CXCR3 ligands in the presence of SG-3-00802 and SG-3-06683 was tested using a Transwell migration assay. Suboptimal concentrations of each ligand (CXCR3 ligands CXCL9, CXCL10, and CXCL11) were added to the bottom of the transwell with increasing doses of SG-3-00802 or SG-3-006683. An optimal concentration of ligand was used as positive control, as indicated in the graphs.
Unstimulated human T cells were resuspended in AIM V serum-free media, then were added to the top chamber of a […] polycarbonate Transwell insert and incubated with the indicated concentrations of the ligands and peptides in the bottom chamber for 2.5 hours at 37° C. T cells that migrated to the bottom chamber were collected, stained with anti-CD3 antibody, and counted using Beckman Coulter Cytoflex flow cytometer. 123count eBeads counting beads were added to each of the wells for obtaining the absolute cell counts.

[3] = target: T3, human chemokine (C-X-C motif) receptor 3; assay: hit of DualSystems LRC-TriCEPS capture and SelectScreen reporter assay, confirmed in PathHunter beta-arrestin GPCR panel

| Molecule | activity of CXCL11 on the CXCR3 receptor (PAM2) (CXCR3) | Activation of CXCR3 [1] | T cell migration to suboptimal level of ligand [2] | binding result [3] |
| --- | --- | --- | --- | --- |
| GQRQKHKPNECIVMVRGKRRIIKCKECMPKVSPRVKM (not fully specified; cysteine pairing not given here) [SG-3-06683] | enhanced the activity of the endogenous ligand CXCL11 | maintained | increased migration |  |
| MKVRPSVKPMCEKCKIIRRKGRVMVICENPKHKQRQG (also called PEP802) [SG-3-00802] |  |  |  | binds |
